Target: T1, human GRP receptor (human, UniProt P30550 1-384)
T1 construct: also called Gastrin-releasing peptide (GRP) receptor; GRP receptors
Test: binding affinity (IC50); assay format, labelled ligand and receptor source not described

T1 sequence (P30550 whole entry): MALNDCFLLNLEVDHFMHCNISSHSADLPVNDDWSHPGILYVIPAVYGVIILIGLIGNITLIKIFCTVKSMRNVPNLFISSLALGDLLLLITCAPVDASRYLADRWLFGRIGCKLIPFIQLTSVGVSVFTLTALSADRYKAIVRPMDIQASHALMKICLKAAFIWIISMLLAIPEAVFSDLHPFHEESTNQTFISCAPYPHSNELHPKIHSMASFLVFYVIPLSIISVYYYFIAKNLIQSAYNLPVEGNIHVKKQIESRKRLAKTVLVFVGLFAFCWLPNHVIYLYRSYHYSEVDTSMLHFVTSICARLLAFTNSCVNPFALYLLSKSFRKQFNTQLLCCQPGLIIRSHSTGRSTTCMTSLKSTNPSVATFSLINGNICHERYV

B1: 3-CN,4-F-Benzoyl-Arg-Ava-Gln-Trp-Ala-Val-NMeGly-His-Sta-Leu-NH2 (peptide)
peptide: RXQWAVGHXL
modifications: not fully specified; N-terminal 3-cyano-4-fluoro-benzoyl group (F is 18F or 19F); Ava (5-aminovaleric acid) spacer; NMeGly (N-methylglycine); Sta (statine); C-terminal amide
notes: Synthetic bombesin analog
Work on B1 yielded an IC50 of 1.9 to 2.7 nM.

B2: 3-CN,4-F-Benzoyl-Arg-Ava-Gln-Trp-Ala-Val-Gly-His(3Me)-Sta-Leu-NH2 (peptide)
peptide: RXQWAVGHXL
modifications: not fully specified; N-terminal 3-cyano-4-fluoro-benzoyl group (F is 18F or 19F); Ava (5-aminovaleric acid) spacer; His(3Me) (3-methylhistidine); Sta (statine); C-terminal amide
notes: Synthetic bombesin analog
In the case of B2, the IC50 is reported as 1 nM.

B3: 3-CF3,4-F-Benzoyl-Arg-Ava-Gln-Trp-Ala-Val-NMeGly-His-Sta-Leu-NH2 (peptide)
peptide: RXQWAVGHXL
modifications: not fully specified; N-terminal 3-trifluoromethyl-4-fluoro-benzoyl group (F is 18F or 19F); Ava (5-aminovaleric acid) spacer; NMeGly (N-methylglycine); Sta (statine); C-terminal amide
notes: Synthetic bombesin analog
B3 showed an IC50 of 0.3 to 1.8 nM.

B4: 4F,3CN-Bnz-Arg-Ava-Gln-Trp-Ala-Val-NMeGly-His(3Me)-Sta-Leu-NH2 (peptide)
peptide: RXQWAVGHXL
modifications: not fully specified; N-terminal 3-cyano-4-fluoro-benzoyl group (F is 18F or 19F); Ava (5-aminovaleric acid) spacer; NMeGly (N-methylglycine); His(3Me) (3-methylhistidine); Sta (statine); C-terminal amide
notes: Synthetic bombesin analog
B4 was tested, and the IC50 was 2.3 nM.

Source: patent publication US20090317326A1 (published 2009)
